Source: article PMC4072576 (Molecular Biology of the Cell, 2014)

B1: His-ctxI (recombinant N-terminal His-tagged cortexillin I) (natural protein)
chain: MAGKDWEIVQEKAFTAWVNSVLDKRGEKISDVGKDLSDGVKLIFFLELISSKKFNKKYDFEPKARINMIQNVALALKFLDEELKIKVQGIGSEDFVDNNKKMILGFLWTLYRKYRIAVISEGDKSSEEGLLLWCKNTTTGYDGVNITSFTKSFRDGLAFLALSHKFEPESFKFQEFEAMDPIARLNAAFDFAEKGLGVPKLLEAEEVMRGTTDERSLVLYTSLFFHAYRAKEEKARLESSKNEMANRLAGLENSLESEKVSREQLIKQKDQLNSLLASLESEGAEREKRLRELEAKLDETLKNLELEKLARMELEARLAKTEKDRAILELKLAEAIDEKSKLEQQIEATRIRGAAEAQGLGLLRKNLDTHVHDLLKWQKLTMENSSSSSIDDQIIVEVSGLPFGEQVKHLATKLEAENLAIMKLLNQKEDDLKAQKLKSSKSKK
B2: His-ctxII (recombinant N-terminal His-tagged cortexillin II) (natural protein)
chain: MDLNKEWEKVQEMAFTSWVNSVLEKRGCDKISDVSTDLSDGVKLIYFLESVSGKKFPKKFDLEPKTRIMRVQNLHLAMLFIDEDLKIKVQGVAAEEFVDNNKKMILGFLWTLYRKYRISVINEGDKSSEEGLLAWCKKTTEGYNNVNITGFKSSFRDGHGFLALAHKYDPTVFKYDEYEGHDNIARLNAAFDFAEKGLGIPKLLEAESLSKGNVDERSIVLYTSLFFHAFRAKEEREALEASQNSLNNKLASLEQSLEGEKHSQEELVKQKKDLEDALNKIREQNDNRNSRITDLQSKIDDALRGLDDEKLAKLDLESRLAKCEKDKAILELKLAEILDEKDRLEKKIDEDKKRAEAERLGLGLIRQHLAAQFSDIHKWQSFLEHPETVPYTGTPVDLDSELSSLSFEEQAKKLASKLESENILIEKYLNGKEEAKAAAKK

Target: F-actin (rabbit muscle actin) (rabbit, UniProt P68135 1-377)
Assay: co-sedimentation

| Binder | Kd [µM] | stoichiometry N | binding result |
| --- | --- | --- | --- |
| B1 | ~0.2 | ~4 actin subunits per ctxI homodimer | – |
| B2 | – | – | binds |
